Literature values, collected in paper doi:10.1101/2024.02.22.581550.

Target: Cys145 (UniProt position 145, PILIPCHRVVC)

Substance: O6-alkylguanine-DNA alkyltransferase (hAGT; MGMT, methylated-DNA--protein-cysteine methyltransferase) (Homo sapiens)
- pKa: ∼5
